In experiment [1] the target is T1, compound 1 as a partial peptide of FGF-8 with the C terminal labeled with biotin (human, C terminal labeled with biotin).
T1 construct: Captured on Sensor Chip SA (35 RU) for BIAcore 2000; also called compound 1 labeled with biotin; FGF-8 peptide
T1 peptide: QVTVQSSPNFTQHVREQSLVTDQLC
Briefly: BIAcore 2000, biotin-labeled compound 1 on SA chip (35 RU), antibody 16.7 µg/mL; dissociation hardly observed. The method, then: (§1) In order to examine the FGF-8 binding activity of the anti-FGF-8 neutralizing CDR-grafted antibodies obtained in 5. of Reference Example 3, the FGF-8 binding activity of the various anti-FGF-8 neutralizing CDR-grafted antibodies was measured and compared through BIAcore 2000 using compound 1 as a partial peptide of FGF-8 with the C terminal labeled with biotin in the following manner. The anti-FGF-8 neutralizing chimeric antibody KM3034 derived from CHO/DG44 cells obtained in 3. (1) of Reference Example 1 was used as a positive control.
(§2) HBS-EP was used as a sample diluent and a buffer during measurement. First, Sensor Chip SA (manufactured by BIACORE) was installed, and 5 μL of compound 1 labeled with biotin which had been adjusted to 0.05 μg/mL was added at a flow rate of 5 μL/min. Then, 5 μL of a 10 mmol/L glycine-hydrochloride solution (pH 1.5) was added twice continuously to wash the tip surface. The immobilization amount of the FGF-8 peptide was 35 RU.
60 μL of each of the antibody solutions was added to an FGF-8 peptide immobilized flow cell at a flow rate of 20 μL/min, and the dissociation reaction was then monitored for 3 minutes. After the dissociation reaction, 20 μL of 10 mmol/L glycine-hydrochloride solution (pH 1.5) was added twice continuously to regenerate the chip surface. This cycle was performed on the antibody solution at various concentrations (from 50 to 1.85 μg/mL) to obtain sensor grams at various concentrations. The sensor grams of the respective antibodies were converted to sensor grams of specific reactions by deduceing a sensor gram obtained using the chimeric antibody KM871 to GD3 as a negative control.

Experiment [2] concerns the target T2, BSA-compound 1 (conjugate of the human FGF-8 partial peptide compound 1 with bovine serum albumin) (human, not fully specified; C-terminal cysteine conjugated to BSA through SMCC).
T2 construct: Coated on ELISA plates; the BSA carrier is not written as a chain
T2 peptide: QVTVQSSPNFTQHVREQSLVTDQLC
The experiment can be described thus: ELISA, plate coated with BSA-compound 1; positive control. The method, then:
The above-prepared BSA-compound 1 solution was dispensed at a 96-well ELISA plate (manufactured by Greiner) at a concentration of from 0.5 to 1.0 μg/mL in an amount of 50 μL/well, and allowed to stand overnight at 4° C. for adsorption. After washing with PBS, 1% BSA-containing PBS (hereinafter referred to as BSA-PBS) was added in an amount of 100 μL/well and reacted at room temperature for 1 hour to block a remaining active group. After washing each well with 0.05% Tween-containing PBS (hereinafter referred to as Tween-PBS), the culture supernatant or the purified antibody of the tranformants was added in an amount of 50 μL/well, and the reaction was conducted at room temperature for 1 hour. After the reaction, each well was washed with Tween-PBS, a peroxidase-labeled goat anti-human IgG (H & L) antibody solution (manufactured by American Qualex) diluted 3,000 to 6,000 times with BSA-PBS was added as a second antibody solution in an amount of 50 μL/well. The reaction was performed at room temperature for 1 hour. […] Then, absorbance was measured at 415 nm.
A general note: An ELISA detects its analyte on a solid surface through an enzyme-linked reagent.

The target of experiment [3] is T2, BSA-compound 1 (conjugate of the human …). Briefly: ELISA, plate coated with BSA-compound 1.
The target of experiment [4] is T3, FGF-8 (manufactured by R & D) (Homo sapiens (Human), UniProt P55075 23-215).
T3 sequence: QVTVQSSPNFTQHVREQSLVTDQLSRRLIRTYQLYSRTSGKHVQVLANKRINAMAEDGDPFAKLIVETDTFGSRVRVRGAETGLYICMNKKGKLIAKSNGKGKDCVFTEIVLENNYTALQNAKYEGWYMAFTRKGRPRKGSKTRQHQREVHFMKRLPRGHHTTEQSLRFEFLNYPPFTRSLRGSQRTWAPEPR
The experiment can be described thus: cell-based or functional assay.

Experiment [5] has as its target T1, compound 1 as a partial peptide of …. The experiment can be described thus: BIAcore 2000, biotin-labeled compound 1 on SA chip, antibody 16.7 µg/mL; dissociation hardly observed. On the procedure:
as §1, §2
60 μL of each of the antibody solutions was added to an FGF-8 peptide immobilized flow cell at a flow rate of 20 μL/min, and the dissociation reaction was then monitored for 3 minutes. After the dissociation reaction, 20 μL of 10 mmol/L glycine-hydrochloride solution (pH 1.5) was added twice continuously to regenerate the chip surface. […]
For orientation: Surface plasmon resonance follows binding to a sensor surface in real time, without labels.

Positions count from the first letter of the chain named.

B1: anti-FGF-8 neutralizing CDR-grafted antibody HV0LV3-1/CHO (antibody, V domains shown)
VH: QVQLVQSGAEVKKPGASVKVSCKASGYTFTDYYLNWVRQAPGQGLEWMGEIDPGSDSIYYNENLEGRVTITADTSTSTAYMELSSLRSEDTAVYYCARYGYSRYDVRFVYWGQGTLVTVSS
VL: DVVMTQSPLSLPVTPGEPASISCRSSQSLVHSNGRTYLEWYLQKPGQSPQVLIYKVSNRISGVPDRFSGSGSGTDFTLKISRVEAEDVGVYFCFQGSHVPYTFGQGTKVEIK
notes: HV.0 + LV.3-1; also called KM8036
B1: the binding result in experiment [1] is on record as “binds”.

B2: anti-FGF-8 neutralizing chimeric antibody KM3034 (antibody, V domains shown)
VH: QVQLQQSGAEVARPGASVKLSCKASGYTFTDYYLNWVKQRSGQGLEWIGEIDPGSDSIYYNENLEGRATLTADKSSSTAYMQLNSLTSEDSAVYFCARYGYSRYDVRFVYWGQGTLVTVST
VL: B1 VL with V3L, S7T, T14S, P15L, E17D, P18Q, Q50K, V88L, Q105G, V109L
notes: expressed in CHO/DG44 cells; also called human chimeric antibody KM3034
B2: the binding result in experiment [1] is reported as “binds”.

B3: anti-FGF-8 neutralizing chimeric antibody KM3334 (antibody, V domains shown)
VH: B2 VH
VL: B1 VL with V3L, S7T, T14S, P15L, E17D, P18Q, Q50K, V88L, Q105G, V109L
notes: expressed in YB2/0 cells; also called human chimeric antibody KM3334
As for B3, the binding result in experiment [2] is given as “binds”.

B4: anti-FGF-8 neutralizing CDR-grafted antibody HV0LV6 (antibody, V domains shown)
VH: B1 VH
VL: B1 VL with T14S, P15L, Q50K
notes: HV.0 + LV.6; YB2/0 cell-derived; also called KM8037
In the case of B4, the binding result in experiment [3] is listed as “binds”.

B5: anti-FGF-8 neutralizing CDR-grafted antibody HV0LV3-2/CHO (antibody, V domains shown)
VH: B1 VH
VL: B1 VL with V2I, T14S, P15L, V51L
notes: HV.0 + LV.3-2; CHO/DG44 cell-derived
Turning to B5, the binding result in experiment [1] is “binds”.

B6: anti-FGF-8 neutralizing CDR-grafted antibody HV0LV4-1/CHO (antibody, V domains shown)
VH: B1 VH
VL: B1 VL with Q50K
notes: HV.0 + LV.4-1; CHO/DG44 cell-derived
On to B6, for which the binding result in experiment [1] was “binds”.

B7: anti-FGF-8 neutralizing CDR-grafted antibody HV0LV0/CHO (antibody, V domains shown)
VH: B1 VH
VL: B1 VL with V2I, V51L, F92Y
notes: HV.0 + LV.0; CHO/DG44 cell-derived
As to B7, the binding result in experiment [1] is on record as “binds”.

B8: anti-FGF-8 neutralizing CDR-grafted antibody HV6LV6 (antibody, V domains shown)
VH: B1 VH with K12A, K13R, A40R, P41S, M48I, Y95F
VL: B1 VL with T14S, P15L, Q50K
notes: HV.6 + LV.6
B8: in experiment [3], the binding result is on record as “binds”.

B9: anti-FGF-8 neutralizing CDR-grafted antibody HV0LV2-1/CHO (antibody, V domains shown)
VH: B1 VH
VL: B1 VL with V2I
notes: HV.0 + LV.2-1; CHO/DG44 cell-derived
In the case of B9, the binding result in experiment [1] is reported as “binds”.

B10: anti-FGF-8 neutralizing CDR-grafted antibody HV0LV6/CHO (antibody, V domains shown)
VH: B1 VH
VL: B1 VL with T14S, P15L, Q50K
notes: HV.0 + LV.6; CHO/DG44 cell-derived; also called KM8034
With B10, in experiment [1], the binding result is recorded as “binds”.

B11: anti-FGF-8 neutralizing CDR-grafted antibody HV0LV4-2/CHO (antibody, V domains shown)
VH: B1 VH
VL: B1 VL with T14S, P15L, V51L
notes: HV.0 + LV.4-2; CHO/DG44 cell-derived
As to B11, the binding result in experiment [1] is “binds”.

B12: anti-FGF-8 neutralizing CDR-grafted antibody HV0LV0 (antibody, V domains shown)
VH: B1 VH
VL: B1 VL with V2I, V51L, F92Y
notes: HV.0 + LV.0
For the molecule B12, the binding result in experiment [3] is “binds”.

B13: anti-FGF-8 neutralizing CDR-grafted antibody HV0LV3-3/CHO (antibody, V domains shown)
VH: B1 VH
VL: B1 VL with V2I, T14S, P15L, F92Y
notes: HV.0 + LV.3-3; CHO/DG44 cell-derived
Consider B13, for which the “FGF-8 neutralizing activity (FGF-8-dependent growth of SC-3 cells), relative to KM3034” value in experiment [4] was ~0.5 fold of KM3034. In experiment [5], the binding result is given as “binds”.

B14: anti-FGF-8 neutralizing CDR-grafted antibody HV0LV2-2/CHO (antibody, V domains shown)
VH: B1 VH
VL: B1 VL with V51L
notes: HV.0 + LV.2-2; CHO/DG44 cell-derived
As to B14, the binding result in experiment [1] is “binds”.

B15: anti-FGF-8 neutralizing CDR-grafted antibody HV0LV4-3/CHO (antibody, V domains shown)
VH: B1 VH
VL: B1 VL with V2I, T14S, P15L
notes: HV.0 + LV.4-3; also called KM8035
On to B15, for which, in experiment [4], the “FGF-8 neutralizing activity (FGF-8-dependent growth of SC-3 cells), relative to KM3034” value was ~0.5 fold of KM3034. Moreover, in experiment [5], the binding result is listed as “binds”.

These data come from patent US20050175608A1 (Kyowa Kirin, published 2005).
